{"source": "patent EP3964526A1", "about": "(Novartis AG, dated 2022)", "binders": {"B1": {"name": "EP6_min (scFv)", "chain": "EIVMTQSPSTLSASVGDRVIITCQASESIYSGLAWYQQKPGKAPKLLIYQASTLASGVPSRFSGSGSGAEFTLTISSLQPDDFATYYCQQGFGTSNVENPFGQGTKLTVLGGGGGSGGGGSGGGGSGGGGSEVQLVESGGGLVQPGGSLRLSCAASGFSLSRYGVSWVRQAPGKGLEWVSTIGEAGRAYYANWARSRFTISRDNSKNTLYLQMNSLRAEDTAVYYCAKGEVFNNGWGAFNIWGQGTLVTVSS"}, "B2": {"name": "EP6_max (scFv)", "chain": "B1 chain with A69T, E70D, T74A, A154T, A155V, S180G, F198S, N204T, L209V, K228R"}, "B3": {"name": "EP19_max (scFv)", "chain": "EIVMTQSPSTLSASVGDRVIITCQASDNIYRGLAWYQQKPGKAPKLLIYDASTLQSGVPSRFSGSGSGTQFTLTISSLQPDDFATYYCLGVYGYSSDDGAAFGQGTKLTVLGGGGGSGGGGSGGGGSGGGGSEVQLVESGGGLVQPGGSLRLSCTVSGFSLNSNEISWVRQAPGKGLEWVGYIGNGGMTHYASWAKGRFTISRDTSKNTVYLQMNSLRAEDTAVYYCASSVEYTDLYYLNIWGQGTLVTVSS"}, "B4": {"name": "EP15_max (scFv)", "chain": "EIVMTQSPSTLSASVGDRVIITCQASENIYTSLAWYQQKPGKAPKLLIYSASTLASGVPSRFSGSGSGTEFTLTISSLQPDDFATYYCQQGFATSNVENPFGQGTKLTVLGGGGGSGGGGSGGGGSGGGGSEVQLVESGGGSVQPGGSLRLSCTVSGFSLSRYGVSWVRQAPGKGLEWVGAIGETGRAYYANWAKSRSTISRDTSKNTVYLQMNSLRAEDTATYYCARGEEFNNGWGAFNIWGQGTTVTVSS"}, "B5": {"name": "EP1_max (scFv)", "chain": "EIVMTQSPSTLSASVGDRVIITCQSTESVYKNNYLAWYQQKPGKAPKLLIYDASTLASGVPSRFSGSGSGTEFTLTISSLQPDDFATYYCAGYYRSGSGTANGSFGQGTKLTVLGGGGGSGGGGSGGGGSGGGGSEVQLVESGGGSVQPGGSLRLSCTVSGIDLSNDAISWVRQAPGKGLEWVAYISDWSIRYYANWAQGRFTISKDTSKNTVYLQMNSLRAEDTATYYCARGAPGAGDNGIWGQGTTVTVSS"}, "B6": {"name": "EP42_min (scFv)", "chain": "EIVMTQSPSTLSASVGDRVIITCQSTESVYKNNYLAWYQQKPGKAPKLLIYDASTLASGVPSRFSGSGSGAEFTLTISSLQPDDFATYYCAGYYRSGFGTANGSFGQGTKLTVLGGGGGSGGGGSGGGGSGGGGSEVQLVESGGGLVQPGGSLRLSCAASGFTFRNDAISWVRQAPGKGLEWVSYISDWGIKYYASWVKGRFTISRDNSKNTLYLQMNSLRAEDTAVYYCAKGAPGAGDNGIWGQGTLVTVSS"}, "B7": {"name": "EP34_max (scFv)", "chain": "EIVMTQSPSTLSASLGDRVIITCQSSQSVYGNIWMAWYQQKSGKAPKLLIYQASKLASGVPSRFSGSGSGAEFSLTISSLQPDDFATYYCQGNFNTGDRYAFGQGTKLTVLGGGGGSGGGGSGGGGSGGGGSEVQLVESGGGLVQPGGSLRLSCTASGFTISRSYWICWVRQAPGKGLEWVACIYGDNDITPLYANWAKGRFPVSTDTSKNTVYLQMNSLRAEDTAVYYCARLGYADYAYDLWGQGTLVTVSS"}, "B8": {"name": "EP43_min (scFv)", "chain": "EIVMTQSPSTLSASVGDRVIITCQASQSISDWLAWYQQKPGKAPKLLIYGASRLASGVPSRFSGSGSGAEFTLTISSLQPDDFATYYCQQGWSDSYVDNLFGQGTKLTVLGGGGGSGGGGSGGGGSGGGGSEVQLVESGGGLVQPGGSLRLSCAASGFSLSSGAMSWVRQAPGKGLEWVSVIISSGATYYASWAKGRFTISRDNSKNTLYLQMNSLRAEDTAVYYCAKGGPDDSNSMGTFDPWGQGTLVTVSS"}, "B9": {"name": "EP15_min (scFv)", "chain": "EIVMTQSPSTLSASVGDRVIITCQASENIYTSLAWYQQKPGKAPKLLIYSASTLASGVPSRFSGSGSGAEFTLTISSLQPDDFATYYCQQGFATSNVENPFGQGTKLTVLGGGGGSGGGGSGGGGSGGGGSEVQLVESGGGLVQPGGSLRLSCAASGFTFSRYGVSWVRQAPGKGLEWVSAIGETGRAYYANWAKSRFTISRDNSKNTLYLQMNSLRAEDTAVYYCAKGEEFNNGWGAFNIWGQGTLVTVSS"}, "B10": {"name": "534-max (scFv)", "chain": "EIVMTQSPSTLSASVGDRVIITCQASQSINIWLSWYQQKPGKAPKLLIYKESTLASGVPSRFSGSGSGTEFTLTISSLQPDDFATYYCQNNYDSGNNGFPFGQGTKLTVLGGGGGSGGGGSGGGGSGGGGSEVQLVESGGGLVQPGGSLRLSCTASGFSLSYYYMSWVRQAPGKGLEWVGIIGPGDYTDYASWAKGRFTISKDTSKNTVYLQMNSLRAEDTAVYYCARGDDNSGWGEDIWGQGTLVTVSS"}, "B11": {"name": "375-min (scFv)", "chain": "EIVMTQSPSTLSASVGDRVIITCQASENINIWLSWYQQKPGKAPKLLIYQASKLASGVPSRFSGSGSGAEFTLTISSLQPDDFATYYCQNNYSYNRYGAPFGQGTKLTVLGGGGGSGGGGSGGGGSGGGGSEVQLVESGGGLVQPGGSLRLSCAASGFSFTTTDYMCWVRQAPGKGLEWVSCILAGDGSTYYANWAKGRFTISRDNSKNTLYLQMNSLRAEDTAVYYCAKSDPASSWSFALWGQGTLVTVSS"}, "B12": {"name": "375-max (scFv)", "chain": "B11 chain with A69T, E70Q, A154K, S181G, I202G, R204K, N206T, L211V, K230R"}, "B13": {"name": "610-min (scFv)", "chain": "EIVMTQSPSTLSASVGDRVIITCQASQSISSWLSWYQQKPGKAPKLLIYQASTLASGVPSRFSGSGSGAEFTLTISSLQPDDFATYYCQNNYGFRSYGGAFGQGTKLTVLGGGGGSGGGGSGGGGSGGGGSEVQLVESGGGLVQPGGSLRLSCAASGIDFSGAYYMGWVRQAPGKGLEWVSYIDYDGDRYYASWAKGRFTISRDNSKNTLYLQMNSLRAEDTAVYYCAKSDYSSGWGTDIWGQGTLVTVSS"}, "B14": {"name": "610-max (scFv)", "chain": "B13 chain with A69T, A154T, S181G, R203K, N205T, L210V, K229R"}, "B15": {"name": "435-max (scFv)", "chain": "EIVMTQSPSTLSASVGDRVIITCQASQSIGSSLAWYQQKPGKAPKLLIYTAANLASGVPSRFSGSRSGAEFTLTISSLQPDDFATYYCQNFATSDTVTFGQGTKLTVLGGGGGSGGGGSGGGGSGGGGSEVQLVESGGGLVQPGGSLRLSCKASGFSLNTNYWMCWVRQAPGKGLEWVGCMYTGSYNRAYYASWAKGRFTSSKDTSKNTVYLQMNSLRAEDTAVYYCAKGSNWYSDLWGQGTLVTVSS"}}, "note": "Positions count from the first letter of the chain named."}
{"biological_target": "T1, Human TNFa N-his trimers (human, UniProt P01375 77-233)", "T1 construct": "Captured at 5 nM on an NTA sensor chip by the N-terminal his-tags; also called His-tagged TNF (produced at ESBATech); not shown: N-terminal his-tag", "T1 sequence (P01375 77-233 limits assumed)": "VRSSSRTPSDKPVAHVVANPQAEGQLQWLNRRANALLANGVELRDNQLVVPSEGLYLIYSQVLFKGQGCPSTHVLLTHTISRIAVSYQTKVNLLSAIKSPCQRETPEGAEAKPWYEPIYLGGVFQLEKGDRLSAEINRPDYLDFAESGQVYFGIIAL", "assay": "SPR BIAcore T100, His-tagged human TNF trimers captured on NTA chip, scFv as analyte", "units": {"Kd": "nM"}}
{"binder": "B1", "Kd": 106}
{"binder": "B2", "Kd": 0.512}
{"binder": "B3", "Kd": 2.91}
{"binder": "B4", "Kd": 1.48}
{"binder": "B5", "Kd": 56.9}
{"binder": "B6", "Kd": 58.7}
{"binder": "B7", "Kd": 0.0286}
{"binder": "B8", "Kd": 5540}
{"binder": "B9", "Kd": 262}
{"biological_target": "T2, recombinant human VEGF165 (PeproTech EC Ltd.) (human, UniProt P15692-4 27-191)", "T2 construct": "Amine-coupled to a CM4 sensor chip; also called hVEGF165", "T2 sequence (P15692 other isoform, or with tags, fused parts or gaps limits assumed)": "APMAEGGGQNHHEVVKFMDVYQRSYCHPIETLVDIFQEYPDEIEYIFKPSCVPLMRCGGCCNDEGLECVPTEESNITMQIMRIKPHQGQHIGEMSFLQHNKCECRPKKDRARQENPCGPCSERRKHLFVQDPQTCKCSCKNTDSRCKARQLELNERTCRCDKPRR", "assay": "SPR BIAcore T100, hVEGF165 amine-coupled on CM4 chip, scFv as analyte", "units": {"Kd": "nM", "koff": "s⁻¹", "kon": "M⁻¹ s⁻¹"}}
{"binder": "B10", "Kd": 9.21, "koff": 0.0173, "kon": "1.88e+06"}
{"binder": "B11", "Kd": 5.41, "koff": 0.00501, "kon": 927000}
{"binder": "B12", "Kd": 2.68, "koff": 0.00655, "kon": "2.44e+06"}
{"binder": "B13", "Kd": 10.6, "koff": 0.00265, "kon": 251000}
{"binder": "B14", "Kd": 1.18, "koff": 0.000601, "kon": 509000}
{"binder": "B15", "Kd": 4.53, "koff": 0.000755, "kon": 167000}
